The results in this text go back to US20230058774A1.

Test [1] concerns the target FasDNR (Fas dominant negative receptor, deletion of amino acids 230-314 of human Fas) (human) (UniProt P25445). The test is described as follows: cell-based or functional assay.
The target in test [2] is human Fas, wild type (human) (UniProt P25445). The test can be described thus: cell-based or functional assay.

Bounds are passed on as bounds.

In the case of “soluble FasL oligomerized through a leucine zipper motif (FasL-LZ) (from UniProt P48023 103-281) (ligand)”, the results for the apoptosis (active Caspase3/7 and Annexin V) of primary human CD8+ T cells exposed to 100 ng/ml FasL-LZ in test [1] and in test [2] were less than 20% and 70%, respectively.
